The text below walks through data of PMC5472405, “Epithelial chemokine CXCL14 synergizes with CXCL12 via allosteric modulation of CXCR4” (The FASEB Journal, 2017).

B2: CXC chemokine receptor 4 (CXCR4) on lentiviral particles (receptor, UniProt P61073 1-352, looked up)
chain: MEGISIYTSDNYTEEMGSGDYDSMKEPCFREENANFNKIFLPTIYSIIFLTGIVGNGLVILVMGYQKKLRSMTDKYRLHLSVADLLFVITLPFWAVDAVANWYFGNFLCKAVHVIYTVNLYSSVLILAFISLDRYLAIVHATNSQRPRKLLAEKVVYVGVWIPALLLTIPDFIFANVSEADDRYICDRFYPNDLWVVVFQFQHIMVGLILPGIVILSCYCIIISKLSHSKGHQKRKALKTTVILILAFFACWLPYYIGISIDSFILLEIIKQGCEFENTVHKWISITEALAFFHCCLNPILYAFLGAKFKTSAQHALTSVSRGSSLKILSKGKRGGHSSVSTESESSSFHSS
notes: also called CXCR4-expressing LVPs

For test [1], the target named is B2. In words: cell-based or functional assay.
Test [2] concerns the target B2. In words: SPR; CXCR4 lentiviral particles (8000-8500 RU) immobilised on a CM5 chip; CXCL12 or CXCL14 12.5-200 nM injected in HBS (100 mM HEPES, 150 mM NaCl, 0.005% P20, pH 7.4), 30 ul/min, 25°C; reference: particles from CXCR4-negative cells or none; simple 1-site model; Biacore 3000. The note with it: one partner purified. (Surface plasmon resonance follows binding to a sensor surface in real time, without labels.)

Test [3] has as its target T1, full-length CXCL12α, synthetic (human, UniProt P48061-2 22-89).
T1 construct: also called CXC chemokine ligand 12; source: chemically synthesized
Described as above. Conditions: one partner purified.

Some results are limits rather than exact numbers.

By Kd is commonly meant the equilibrium constant for the complex coming apart. As usually defined, the koff is a measure of how fast the partners let go of each other. A low value points to slow dissociation. What is called kon is the second-order rate constant of association. Low values mean slower complex formation, high ones faster complex formation.

T1 sequence (P48061 22-89): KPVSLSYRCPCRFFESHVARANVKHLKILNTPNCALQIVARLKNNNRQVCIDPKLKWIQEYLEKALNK

B1: CXC chemokine ligand 14 (CXCL14), synthetic (ligand, human, UniProt O95715 35-111, looked up)
chain: SKCKCSRKGPKIRYSDVKKLEMKPKYPHCEEKMVIITTKSVSRYRGQEHCLHPKLQSTKRFIKWYNAWNEKRRVYEE
notes: source: chemically synthesized
For B1, in test [1], the “entry of R5-tropic HIV-1 (pR8Bal) into TZM-bl cells (luciferase reporter), 0-1000 nM CXCL14” value is greater than 3 fold and the “entry of X4 HIV-1 (pNL4.3) into TZM-bl cells (luciferase reporter), 10-1000 nM CXCL14 alone” value is greater than 3 fold. Also, in test [2], the affinity, expressed as Kd, was 8 nM; the koff is 0.00317 s⁻¹; the kon is 396000 M⁻¹ s⁻¹.
In test [3], B2 yielded a Kd of 35 nM, a koff of 0.00428 s⁻¹ and an association rate constant (kon) of 122000 M⁻¹ s⁻¹.
